From PMC10322906

Target: CXCR4-Tango
Test: Tango (TEV-cleavage luciferase reporter of arrestin recruitment); Tango-Trio, basal: HTTL-B1 / HTTL-B2 cells transfected with GPCR-Tango constructs, with against without cumate (30 µg/mL) or cumate dose-response, no agonist; in Fig. 7 also with inverse agonists/antagonists at EC80

How did the fold change in constitutive β-arrestin-2 recruitment (with against without cumate) turn out when “β-arrestin2-TEV219 (from UniProt P32121 1-409) (natural protein)” was run?
Its fold change in constitutive β-arrestin-2 recruitment (with against without cumate) is 67 fold.
